Substrate in data set [1]: C[C@H](CCC(=O)NCCS(=O)(=O)O)[C@H]1CC[C@H]2[C@@H]3[C@H](O)C[C@@H]4C[C@H](O)CC[C@]4(C)[C@H]3C[C@H](O)[C@]12C
In words: cells, lysate or membranes named.

Substrate in data set [2]: CN(Cc1cnc2nc(N)nc(N)c2n1)c1ccc(C(=O)N[C@@H](CCC(=O)O)C(=O)O)cc1
In words: cells, lysate or membranes named. As to conditions: other: ABCG2-M membranes; pH 7.0; 37.0 °C.

B1: humanBSEP (Homo sapiens) (protein)
chain: MSDSVILRSIKKFGEENDGFESDKSYNNDKKSRLQDEKKGDGVRVGFFQLFRFSSSTDIWLMFVGSLCAFLHGIAQPGVLLIFGTMTDVFIDYDVELQELQIPGKACVNNTIVWTNSSLNQNMTNGTRCGLLNIESEMIKFASYYAGIAVAVLITGYIQICFWVIAAARQIQKMRKFYFRRIMRMEIGWFDCNSVGELNTRFSDDINKINDAIADQMALFIQRMTSTICGFLLGFFRGWKLTLVIISVSPLIGIGAATIGLSVSKFTDYELKAYAKAGVVADEVISSMRTVAAFGGEKREVERYEKNLVFAQRWGIRKGIVMGFFTGFVWCLIFLCYALAFWYGSTLVLDEGEYTPGTLVQIFLSVIVGALNLGNASPCLEAFATGRAAATSIFETIDRKPIIDCMSEDGYKLDRIKGEIEFHNVTFHYPSRPEVKILNDLNMVIKPGEMTALVGPSGAGKSTALQLIQRFYDPCEGMVTVDGHDIRSLNIQWLRDQIGIVEQEPVLFSTTIAENIRYGREDATMEDIVQAAKEANAYNFIMDLPQQFDTLVGEGGGQMSGGQKQRVAIARALIRNPKILLLDMATSALDNESEAMVQEVLSKIQHGHTIISVAHRLSTVRAADTIIGFEHGTAVERGTHEELLERKGVYFTLVTLQSQGNQALNEEDIKDATEDDMLARTFSRGSYQDSLRASIRQRSKSQLSYLVHEPPLAVVDHKSTYEEDRKDKDIPVQEEVEPAPVRRILKFSAPEWPYMLVGSVGAAVNGTVTPLYAFLFSQILGTFSIPDKEEQRSQINGVCLLFVAMGCVSLFTQFLQGYAFAKSGELLTKRLRKFGFRAMLGQDIAWFDDLRNSPGALTTRLATDASQVQGAAGSQIGMIVNSFTNVTVAMIIAFSFSWKLSLVILCFFPFLALSGATQTRMLTGFASRDKQALEMVGQITNEALSNIRTVAGIGKERRFIEALETELEKPFKTAIQKANIYGFCFAFAQCIMFIANSASYRYGGYLISNEGLHFSYVFRVISAVVLSATALGRAFSYTPSYAKAKISAARFFQLLDRQPPISVYNTAGEKWDNFQGKIDFVDCKFTYPSRPDSQVLNGLSVSISPGQTLAFVGSSGCGKSTSIQLLERFYDPDQGKVMIDGHDSKKVNVQFLRSNIGIVSQEPVLFACSIMDNIKYGDNTKEIPMERVIAAAKQAQLHDFVMSLPEKYETNVGSQGSQLSRGEKQRIAIARAIVRDPKILLLDEATSALDTESEKTVQVALDKAREGRTCIVIAHRLSTIQNADIIAVMAQGVVIEKGTHEELMAQKGAYYKLVTTGSPIS
Usually Km stands for the substrate concentration at which the rate is half of its maximum. With B1, the Michaelis-Menten constant (Km) in data set [1] (other: humanBSEP-Sf9 CTRL) was 15.03 µM.

B2: ratBsep (Rattus norvegicus) (protein)
chain: MSDSVILRSVKKFGEENHAFESDGSHNNDKKSRLQDKMKEGDIRVGFFELFRFSSSKDIWLMLMGGVCALLHGMAQPGILIIFGIMTDIFIKYDIERQELEIPGKACVNNTIVWINSSFHQNMTNGTVCGLVDIESEMIKFSGIYAGVGMTVLILGYFQIRLWVITGARQIRRMRKIYFRRIMRMEIGWFDCTSVGELNSRFADDIEKINDAIADQLAHFLQRMSTAMCGLLLGFYRGWKLTLVILAVSPLIGIGAAVIGLSIAKFTELELKAYAKAGSIADEVLSSIRTVAAFGGENKEVERYEKNLVFAQRWGIWKGMVMGFFTGYMWCLIFFCYALAFWYGSTLVLDEEEYTPGTLVQIFLCVILAAMNIGHASSCLEIFSTGCSAATNIFQTIDRQPVIDCMSGDGYKLDRIKGEIEFHNVTFHYPSRPDVKILDNLSMVIKPGETTALVGSSGAGKSTALQLIQRFYDPCEGMVTLDGHDIRSLNIRWLRDQIGIVEQEPVLFSTTIAENIRFGREDATMEDIVQAAKDANAYNFIMALPQQFDTLVGEGGGQMSGGQKQRVAIARALIRNPKILLLDMATSALDNESEARVQEALNKIQHGHTIISVAHRLSTVRAADVIIGFEHGVAVERGTHEELLERKGVYFMLVTLQSQGDNAHKETSIMGKDATEGGTLERTFSRGSYRDSLRASIRQRSKSQLSLLTHDPPLAVADHKSSYKDSKDNDVLVEEVEPAPVRRILKYNIPEWHYILVGSLSAAINGAVTPIYSLLFSQLLGTFSLLDKEQQRSEIHSMCLFFVILGCVSIFTQFLQGYTFAKSGELLTKRLRKFGFKAMLGQDIGWFDDLRNNPGVLTTRLATDASQVQGATGSQVGMMVNSFTNIIAALLIAFFFSWKLSLIITIFFPFLALSGAVQTKMLTGFASQDKQALEKAGQITSEALSNIRTVAGIGVEGRFIKAFEVELQTSYKTAVRKANIYGLCFAFSQGIAFLANSAAYRYGGYLIAYEGLGFSHVFRVVSSVALSATAVGRTFSYTPSYAKAKISAARFFQLLDRKPPINVYSEAGEKWDNFQGKIDFIDCKFTYPSRPDIQVLNGLSVSVNPGQTLAFVGSSGCGKSTSIQLLERFYDPDQGTVMIDGHDSKKVNIQFLRSNIGIVSQEPVLFDCSIMDNIKYGDNTKEISVERAIAAAKQAQLHDFVMSLPEKYETNVGIQGSQLSRGEKQRIAIARAIVRDPKILLLDEATSALDTESEKTVQTALDKAREGRTCIVIAHRLSTIQNSDIIAVVSQGVVIEKGTHEKLMAQKGAYYKLVITGAPIS
Consider B2, for which, in data set [1] (other: ratBsep-Sf9 CTRL), the Km turned out to be 2.203 µM.

B3: ABCG2 (Homo sapiens) (protein)
chain: MSSSNVEVFIPVSQGNTNGFPATASNDLKAFTEGAVLSFHNICYRVKLKSGFLPCRKPVEKEILSNINGIMKPGLNAILGPTGGGKSSLLDVLAARKDPSGLSGDVLINGAPRPANFKCNSGYVVQDDVVMGTLTVRENLQFSAALRLATTMTNHEKNERINRVIQELGLDKVADSKVGTQFIRGVSGGERKRTSIGMELITDPSILFLDEPTTGLDSSTANAVLLLLKRMSKQGRTIIFSIHQPRYSIFKLFDSLTLLASGRLMFHGPAQEALGYFESAGYHCEAYNNPADFFLDIINGDSTAVALNREEDFKATEIIEPSKQDKPLIEKLAEIYVNSSFYKETKAELHQLSGGEKKKKITVFKEISYTTSFCHQLRWVSKRSFKNLLGNPQASIAQIIVTVVLGLVIGAIYFGLKNDSTGIQNRAGVLFFLTTNQCFSSVSAVELFVVEKKLFIHEYISGYYRVSSYFLGKLLSDLLPMRMLPSIIFTCIVYFMLGLKPKADAFFVMMFTLMMVAYSASSMALAIAAGQSVVSVATLLMTICFVFMMIFSGLLVNLTTIASWLSWLQYFSIPRYGFTALQHNEFLGQNFCPGLNATGNNPCNYATCTGEEYLVKQGIDLSPWGLWKNHVALACMIVIFLTIAYLKLLFLKKYS
Turning to B3, the Km in data set [2] was found to be 3600 µM.

B4: mouseBsep (Mus musculus) (protein)
chain: MSDSVILRSVKKFGEENHAFESDGFHNNDKKSRLQDKKKGEGARVGFFELFRFSSSKDNWLMFMGSVCALLHGMAQPGMIIVFGILTDIFVEYDIERQELSIPEKVCMNNTIVWINSSFNQNMTNGTSCGLVDINSEVIKFSGIYAGVGVAVLILGYFQIRLWVITGARQIRKMRKFYFRRIMRMEIGWFDCTSVGELNSRFSDDINKIDEAIADQMALFLQRLSTALSGLLLGFYRGWKLTLVILAVSPLIGIGAAVIGLSVAKFTELELKAYAKAGSIADEVLSSIRTVAAFGGENKEVERYEKNLMFAQRWGIWKGMVMGFFTGYMWCLIFFCYALAFWYGSRLVLDEGEYTPGTLIQIFLCVIIAAMNIGNASSCLEIFSTGCSAASSIFQTIDRQPVMDCMSGDGYKLDRIKGEIEFHNVTFHYPSRPEVKILNNLSMVIKPGETTAFVGSSGAGKSTALQLIQRFYDPCEGMVTLDGHDIRSLNIRWLRDQIGIVEQEPVLFSTTIAENIRLGREEATMEDIVQAAKDANAYNFIMALPQQFDTLVGEGGGQMSGGQKQRVAIARALIRKPKILLLDMATSALDNESEAKVQGALNKIQHGHTIISVAHRLSTVRSADVIIGFEHGTAVERGTHEELLERKGVYFMLVTLQSQEDNTHKETGIKGKDTTEGDTPERTFSRGSYQDSLRASIRQRSKSQLSHLSHEPPLAIGDHKSSYEDRKDNDVLVEEVEPAPVRRILKYNISEWPYILVGALCAAINGAVTPIYSLLFSQILKTFSLVDKEQQRSEIYSMCLFFVILGCVSLFTQFLQGYNFAKSGELLTKRLRKFGFKAMLRQDIGWFDDLKNNPGVLTTRLATDASQVQGATGSQVGMMVNSFTNIFVAVLIAFLFNWKLSLVISVFFPFLALSGAVQTKMLTGFASQDKEILEKAGQITNEALSNIRTVAGIGVEGRFIKAFEVELEKSYKTAIRKANVYGLCYAFSQGISFLANSAAYRYGGYLIVYEDLNFSYVFRVVSSIAMSATAVGRTFSYTPSYAKAKISAARFFQLLDRKPPIDVYSGAGEKWDNFQGKIDFIDCKFTYPSRPDIQVLNGLSVSVDPGQTLAFVGSSGCGKSTSIQLLERFYDPDQGTVMIDGHDSKKVNVQFLRSNIGIVSQEPVLFDCSIMDNIKYGDNTKEISVERAIAAAKQAQLHDFVMSLPEKYETNVGIQGSQLSRGEKQRIAIARAIVRDPKILLLDEATSALDTESEKTVQLALDKAREGRTCIVIAHRLSTIQNSDIIAVMSQGVVIEKGTHKKLMDQKGAYYKLVITGAPIS
For the protein B4, in data set [1] (other: mouseBsep-Sf9 CTRL), the Km turned out to be 6.798 µM.

For the origin of these results see patent publication US8129197B2, “Cholesterol loaded insect cell membranes as test proteins” (SOLVO Biotechnológial ZRT., priority 2006, dated 2012).
